Assay results from patent publication US20220033501A1 (SHANGHAI PHARMAEXPLORER, published 2022).

T1: human TIM-3 extracellular domain protein with hFc tag (hTIM-3-hFc) (human, UniProt Q8TDQ0 22-200)
T1 construct: not shown: human IgG Fc fragment (hFc) of the pCpC vector
T1 sequence: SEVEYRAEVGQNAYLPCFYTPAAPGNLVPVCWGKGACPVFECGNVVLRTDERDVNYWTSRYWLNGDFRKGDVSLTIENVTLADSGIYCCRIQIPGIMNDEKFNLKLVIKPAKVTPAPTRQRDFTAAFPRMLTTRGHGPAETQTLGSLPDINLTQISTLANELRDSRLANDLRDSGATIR

T2: murine TIM-3 extracellular domain protein with hFc tag (mTIM-3-hFc) (mouse, UniProt Q8VIM0 29-191)
T2 construct: also called mouse TIM-3 extracellular domain protein; not shown: human IgG Fc fragment (hFc) of the pCpC vector
T2 chain: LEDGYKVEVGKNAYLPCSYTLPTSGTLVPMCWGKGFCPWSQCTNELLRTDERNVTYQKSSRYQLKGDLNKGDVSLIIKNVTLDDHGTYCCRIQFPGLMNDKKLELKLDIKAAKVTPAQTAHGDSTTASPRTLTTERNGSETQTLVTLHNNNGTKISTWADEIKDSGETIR

T3: monkey TIM-3 extracellular domain protein with hFc tag (cTIM-3-hFc) (monkey)
T3 construct: not shown: human IgG Fc fragment (hFc) of the pCpC vector
T3 chain: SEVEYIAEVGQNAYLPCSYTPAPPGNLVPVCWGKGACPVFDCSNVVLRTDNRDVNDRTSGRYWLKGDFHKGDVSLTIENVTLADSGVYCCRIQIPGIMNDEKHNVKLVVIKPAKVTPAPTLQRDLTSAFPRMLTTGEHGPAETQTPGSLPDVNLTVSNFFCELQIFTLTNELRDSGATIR

T4: TIM-3 protein on human peripheral blood mononuclear lymphocytes (PBMC) (human, UniProt Q8TDQ0 22-301)
T4 sequence: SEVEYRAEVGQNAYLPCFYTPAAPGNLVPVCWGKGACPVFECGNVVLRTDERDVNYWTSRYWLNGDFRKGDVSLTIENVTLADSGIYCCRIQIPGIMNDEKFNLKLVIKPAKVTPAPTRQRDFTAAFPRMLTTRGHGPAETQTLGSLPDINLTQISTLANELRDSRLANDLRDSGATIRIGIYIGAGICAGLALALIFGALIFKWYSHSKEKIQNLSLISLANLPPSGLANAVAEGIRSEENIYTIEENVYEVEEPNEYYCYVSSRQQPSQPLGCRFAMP


Tests used:
[1] = target: T1, human TIM-3 extracellular domain …; test: ELISA, coated human TIM-3 ECD protein, 0.0667 nM antibody
[2] = target: T1, human TIM-3 extracellular domain …; test: ELISA, coated human TIM-3 ECD protein, 6.6667 nM antibody
[3] = target: T2, murine TIM-3 extracellular domain …; test: ELISA, coated mouse TIM-3 ECD protein, 0.6667 nM antibody
[4] = target: T3, monkey TIM-3 extracellular domain …; test: ELISA, coated monkey TIM-3 ECD protein, 0.6667 nM antibody
[5] = target: T1, human TIM-3 extracellular domain …; test: ELISA, coated human TIM-3 ECD protein, 0.0067 nM antibody
[6] = target: T4, TIM-3 protein on human peripheral blood …; test: cell-based or functional assay
[7] = target: T2, murine TIM-3 extracellular domain …; test: ELISA, coated mouse TIM-3 ECD protein, 66.667 nM antibody

Row | OD450 [1] | OD450 [2] | OD450 [3] | OD450 [4] | OD450 [5] | IFN-γ production (donor X); antibody 0.1 µg/ml, N = 1 [6] [pg/mL] | IFN-γ production (donor X); antibody 0.1 µg/ml, N = 2 [6] [pg/mL] | IFN-γ production (donor X); antibody 1 µg/ml, N = 1 [6] [pg/mL] | IFN-γ production (donor X); antibody 1 µg/ml, N = 2 [6] [pg/mL] | IFN-γ production (donor X); antibody 10 µg/ml, N = 1 [6] [pg/mL] | IFN-γ production (donor X); antibody 10 µg/ml, N = 2 [6] [pg/mL] | IFN-γ production (donor X); antibody '0' (4th head as printed), N = 1 [6] [pg/mL] | IFN-γ production (donor X); antibody '0' (4th head as printed), N = 2 [6] [pg/mL] | IFN-γ production (donor X); antibody '0' (5th head as printed), N = 1 [6] [pg/mL] | IFN-γ production (donor X); antibody '0' (5th head as printed), N = 2 [6] [pg/mL] | OD450 [7] | Binder
1 | 1.58 | 2.99 | 0.27 | 3.37 | 0.29 | 2770 | 2820 | 2930 | 3550 | 2980 | 3330 | 2600 | 2540 | 2280 | 2390 | 1.38 | 34B6D8 fully human TIM-3 antibody (human IgG4, kappa) (antibody, V domains shown) VH: EVQLVESGGGLVQPGGSLRLSCAASGFTFSTYWMTWVRQAPGKRLEWVANIKQGGGDKYYVDSVKGRFTISTDNAKNSLYLQMNSLRAEDTAVYYCARGSNWFDPWGQGTLVTVSS VL: EIVMTQSPATLSMSPGERATLSCRASQSVYDNLAWYQQKPGQAPRLLIYGASTRATGIPARFSGSGSGTEFTLTISSLQSEDFALYYCQQYTHWPITFGQGTRLEIK
2 | 1.33 | 2.95 | 0.26 | 3.23 | 0.25 | 2700 | 2880 | 3070 | 3000 | 3150 | 3130 | 2580 | 2460 | 2190 | 2370 | 1.28 | 39E5H1 fully human TIM-3 antibody (human IgG4, kappa) (antibody, V domains shown) VH: EVQLVESGGGLVQPGGSLRLSCAASGFTFSSYWMSWVRQAPGKGLEWVANIKRGGSERYYVDSVKGRFTISGDNAKNSVYLQMNSLRAEDTAVYYCARGSNWFDPWGQGTLVTVSS VL: ETVMTQSPAILSVSPGERATLSCRASQSVYSNLAWYQQKLGQAPRLLIYDASTRATGIPARFSGSGSGTEFTLTISSLQSEDFAVYYCQQYNNWPITFGQGTRLEIK

More lines, now with the values behind:

Row | Binder | OD450 [1] | OD450 [2] | OD450 [3] | OD450 [4] | OD450 [5] | IFN-γ production (donor X); antibody 0.1 µg/ml, N = 1 [6] [pg/mL] | IFN-γ production (donor X); antibody 0.1 µg/ml, N = 2 [6] [pg/mL] | IFN-γ production (donor X); antibody 1 µg/ml, N = 1 [6] [pg/mL] | IFN-γ production (donor X); antibody 1 µg/ml, N = 2 [6] [pg/mL] | IFN-γ production (donor X); antibody 10 µg/ml, N = 1 [6] [pg/mL] | IFN-γ production (donor X); antibody 10 µg/ml, N = 2 [6] [pg/mL] | IFN-γ production (donor X); antibody '0' (4th head as printed), N = 1 [6] [pg/mL] | IFN-γ production (donor X); antibody '0' (4th head as printed), N = 2 [6] [pg/mL] | IFN-γ production (donor X); antibody '0' (5th head as printed), N = 1 [6] [pg/mL] | IFN-γ production (donor X); antibody '0' (5th head as printed), N = 2 [6] [pg/mL] | OD450 [7]
3 | 7A4F10 fully human TIM-3 antibody (human IgG4, kappa) (antibody, V domains shown) VH: EVQLLESGGGLVQPGGSLRLSCAASGFTFRTHLISWVRQAPGKGLEWVAAITGSGGSTYYADSVKGRFIISRDNSKNTLFLQMNSLRAEDTAVYYCAKDGGSGSYDDFWGQGTLVTVSS VL: ETVLTQSPVTLSLSPGERATLSCRASQSVGSYLAWYQQKPGQAPRLLIYDASNRATGIPARFSGSGSGTDFTLTISSLEPEDFAVYYCQQRSNWPPTFGQGTKVEIK | 1.69 | 3.01 | 0.25 | 2.46 | 0.32 | 2930 | 2730 | 2920 | 2780 | 2900 | 2360 | 2340 | 2370 | 2290 | 2230 | 0.99
4 | 18D2H2 fully human TIM-3 antibody (human IgG4, kappa) (antibody, V domains shown) VH: EVQLVESGGDLVQPGGSLRLSCAASGFTFSTYWMTWVRQAPGRGLEWVANIKQDGSAKYYVDSVKGRFTLSRDDAKNSLYLQMNSLRAEDTAVYYCARGSNWFDYWGQGTLVTVSS VL: ETVMTQSPATLSVSPGERATLSCRANQNVYSNLAWYQQKPGQAPRLLIYDASTRATGFPARFSGSGSGTEFTLTISSLQSEDFAVYYCQQYNNWPLTFGGGTKVEIK | 1.57 | 2.61 | 0.22 | 3.16 | 0.32 | 2660 | 2650 | 3000 | 3140 | 2810 | 3070 | 2280 | 2590 | 2340 | 2170 | 0.81
